For experiment [1], the target named is T1, iAPOL1-G0 in podocytes (EIK variant, doxycycline-inducible, in APOL1 KO podocytes) (human, UniProt O14791 29-398).
T1 construct: Stably re-expressed untagged APOL1 isoform A in APOL1 KO clone 89401-3; also called iAPOL1-G0 podocytes; iAPOL1 podocytes
T1 chain: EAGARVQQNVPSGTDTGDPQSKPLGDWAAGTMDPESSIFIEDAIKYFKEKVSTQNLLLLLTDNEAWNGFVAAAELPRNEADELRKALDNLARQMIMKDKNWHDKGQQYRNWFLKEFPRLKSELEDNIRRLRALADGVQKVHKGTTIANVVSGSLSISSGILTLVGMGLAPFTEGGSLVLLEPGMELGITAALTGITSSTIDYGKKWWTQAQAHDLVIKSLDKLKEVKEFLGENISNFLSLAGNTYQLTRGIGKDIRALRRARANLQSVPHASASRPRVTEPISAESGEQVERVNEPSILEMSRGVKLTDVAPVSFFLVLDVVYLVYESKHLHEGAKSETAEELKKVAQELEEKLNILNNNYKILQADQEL
In words: immunoelectron microscopy, iAPOL1-G0 podocytes, 25 µg/ml.

Experiment [2] has as its target T1, iAPOL1-G0 in podocytes (EIK variant, …). In words: immunoelectron microscopy, APOL1-G0 podocytes. The procedure:
Scale bars are 200 nm. APOL1 appears more closely associated with the inner ER membrane face than does the luminal KDEL.
For iEM, 1.4×10⁶ HEK-293 cells in T25 flasks were reverse transfected with 5.4 μg APOL1 or APOL2 cDNA with 12 μl Fugene 6 (Roche 11814443001) for 50 h or 65 h, respectively. Podocytes and transiently transfected HEK-293 cells were fixed with 4% paraformaldehyde in 0.1M phosphate buffer (PB), pH 7.4, for 2 h at room temperature, then overnight at 4° C., and with 2% paraformaldehyde, 0.2% glutaraldehyde in 0.1 M phosphate buffer (PB), pH 7.4, for 2 h at room temperature, respectively. Fixations were continued in 1% PFA in 0.1 M PB at 4° C. for several days. […] For quantitation, random images of APOL1/2 expressing HEK-293 cells and podocytes were made. The positions of at least 50 gold particles per antibody were scored as either (i) OMF: overlapping on outer ER membrane surface and cytosol, or located in the cytosol at a distance ≤15 nm between outer ER membrane surface and the 10 nm gold particle surface; (ii) IMF: overlapping on inner ER membrane surface and ER lumen, or located in the lumen at a distance ≤15 nm between inner ER membrane surface and gold particle surface; or (iii) Lumen: within the ER lumen, with a distance >15 nm between the 10 nm gold particle surface and the nearest inner ER membrane surface. […]

In experiment [3] the target is T2, APOL1 very C-terminal peptide aa 376-398 (human).
T2 peptide: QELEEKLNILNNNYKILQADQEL
Briefly: overlapping ~20-mer peptides (SPR, western blot); antibody named in paragraph 192. The procedure: (§1) Following three TBST washes, anti-mouse (GE Healthcare NA931V, 1:3000) or anti-rabbit HRP (Jackson 711-036-152, 1:8000) was added as secondary antibody. After 1 h, membranes were washed and protein detected using ECL prime (Amersham RPN2232) exposed to MR film (Kodak). Anti-actin HRP-conjugated antibody (clone 13E5, Cell Signaling Technologies 5125S at 1:5000) or calnexin (Abcam Ab22595 at 1:1000) was used as a loading control. For peptide mapping, 2 μl of 1 mM peptides in DMSO were boiled in 5× sample buffer and loaded on 10% Tris-Glycine gel and run using MES buffer. Cell pellets of Sf9 lysates were lysed in native RIPA (NP-40) lysis buffer and run on 10% Tris-Glycine gels.
A 96×96 array-based SPR imaging system (Carterra USA) was used for epitope mapping of anti-ApoL1 monoclonal antibodies. Briefly, purified monoclonal hybridoma antibodies were diluted at 10 μg/ml in 10 mM sodium acetate buffer pH 4.5. Using amine coupling, antibodies were directly immobilized onto a SPR sensorprism CMD 200M chip (XanTec Bioanalytics, Germany) using a Continuous Flow Microspotter (Carterra, USA) to create an array of antibodies. After coupling, the antibodies were blocked with ethanolamine, and primed with running buffer (10 mM HEPES, pH 7.4, 150 mM NaCl, 3 mM EDTA, and 0.005% Tween 20). Epitope mapping was performed by flowing 100 nM of different peptides of APOL1 across the immobilized anti-APOL1 antibodies on the biosensor chip at 25° C. in a running buffer of 10 mM HEPES, pH 7.4, 150 mM NaCl, 3 mM EDTA, and 0.005% Tween 20. After each flow through of the APOL1 peptide, the chip surface was regenerated using 10 mM glycine, pH 2.0.
In general terms: Immunoblotting shows a protein as a band on a membrane.

Experiment [4] has as its target T3, endogenous APOL2 in human podocytes (human, UniProt Q9BQE5 1-337).
T3 construct: In podocyte lysates (western blot) or fixed, permeabilized podocytes; also called 36 kDa APOL2 band
T3 sequence (looked up): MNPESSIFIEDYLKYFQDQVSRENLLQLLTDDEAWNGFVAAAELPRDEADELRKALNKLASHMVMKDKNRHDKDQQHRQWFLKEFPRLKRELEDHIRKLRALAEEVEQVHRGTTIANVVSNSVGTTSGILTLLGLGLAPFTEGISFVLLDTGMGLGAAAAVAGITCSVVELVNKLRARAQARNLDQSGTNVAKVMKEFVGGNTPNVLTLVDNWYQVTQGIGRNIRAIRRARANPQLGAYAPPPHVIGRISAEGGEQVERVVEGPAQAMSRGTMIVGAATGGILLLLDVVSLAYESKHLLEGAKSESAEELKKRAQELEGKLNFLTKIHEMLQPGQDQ
Briefly: western blot of WT and APOL1 KO podocyte lysates. The procedure: The results corroborate the IF cross-reactivities, except for APOL4 cross-reactivity, which appears to be conformationally sensitive. The 3.6D12 antibody continues to recognize APOL2 in the APOL1 KO podocytes (generated as described in Example 1). Note the 4.17A5 western is shown at a longer exposure than the others.
as §1

B1: rabbit monoclonal antibody 5.17D12 (antibody, V domains shown)
VH: QSLEESGGDLVKPGASLTLTCTASGFSFSSNYYMCWVRQAPGKGLEWIACVYVGSGGSTYYASWAKGRFTFSKTSSTTWTLQMTSLTAADTATYFCARDLSYAGDLWGPGTLVTVSS
VL: DPVMTQTPASVSEPVGGTVTINCQASESISSYLAWYQQKPGQPPKLLIYGASNLASGVPSRFKGSGSGTEYTLTISDLECDDAATYYCQSAYYSNSGGHAFGGGTEVVVKG
notes: Rabbit mAb (Method #5), recombinant; also called rabmab 5.17D12
On to B1, for which, in experiment [1], the binding result is on record as “binds”.

B2: antibody 3.6E10 (antibody, V domains shown)
VH: QVQLQQSGAELAKPGASVKMSCKASGYIFTSYYLHWVKQRPGQGLEWIGYINPNTGYTEYTQNFKDRATLTADKSSSTAYMQLTSLTSEDSAVYFCVNGNPFVYWGQGTLVTVSA
VL: DIVMTQSPSSLTVTTGEKVTMTCRSSQSLLNSGNQKNYLTWFQQKPGQPPKLLIYWTSTRYSGVPDRFTGSGSGTDFTLTISSVQAEDLAVYYCQNDYSYPLTFGAGTKLEIKR
notes: Mouse mAb, cloned as murine IgG2a LALAPG
With B2, the binding result in experiment [2] was “binds”.

B3: antibody 4.12E5 (antibody, V domains shown)
VH: EVQLQQSGPELVKTGASVKISCKASGYSFTGYFMHWVKQSHGKSLEWIGYISCYNGASVYNQRFKGKATFTIDTSSSTAYMQFNSLTSEDSAVYYCARDVLRYPRYAVDYWGQGTSVTVSS
VL: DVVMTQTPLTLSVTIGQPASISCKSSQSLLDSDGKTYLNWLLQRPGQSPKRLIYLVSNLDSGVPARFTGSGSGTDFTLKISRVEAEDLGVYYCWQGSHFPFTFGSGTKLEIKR
notes: as for B2
Take B3: in experiment [3], the binding result is “binds”.

B4: antibody 3.6D12 (antibody, V domains shown)
VH: EVMLVESGGGLVRPGGSLKLSCTASGFTFSRCAMSWVRQTPEKRLEWVSAISRDSTYTYYSDSVKGRFTVSRDNAKNTLYLQMSSLRSEDTAMYYCARQIDDYYVDALDYWGQGTSVTVSS
VL: DVQITQSPSYLAASPGETITINCRASKIISKYLAWYQEKPGKTIKLLIYSGFTLQSGIPSRFSGSGSGTDFTLTISSLEPEDFAMYYCQQHNEYPLTFGAGTKLEIKR
notes: Mouse mAb (Method #3), cloned as murine IgG2a LALAPG; Early screens used hybridoma-purified antibody; also called mAb 3.6D12
B4: the binding result in experiment [4] is on record as “binds”.

For the origin of these results see patent US20230071609A1 (Genentech, published 2023).
